Results on 1 molecule are retold here after patent US20090105152A1.

Numbered stars: 1 amine (or outer) side, 2 acyl side, 3 side chain; on linkers, the order of the positions; unused ones are H or OH. Square brackets hold non-standard residues; d marks the D form. Phe(3R-OH) = O=C([C@@H](N[*:1])[C@H](O[*:3])c1ccccc1)[*:2]; Arg(Me) = CNC(=N)NCCC[C@H](N)C(=O)O; Hyp = O=C(O)[C@@H]1C[C@@H](O)CN1; azaGly = NNC(=O)O

The test deals with human OT7T175 (metastin receptor) (human) (UniProt Q969F8). Nature of the test: cell-based or functional assay.
human OT7T175 (metastin receptor) (human), sequence (Q969F8 whole entry L364H): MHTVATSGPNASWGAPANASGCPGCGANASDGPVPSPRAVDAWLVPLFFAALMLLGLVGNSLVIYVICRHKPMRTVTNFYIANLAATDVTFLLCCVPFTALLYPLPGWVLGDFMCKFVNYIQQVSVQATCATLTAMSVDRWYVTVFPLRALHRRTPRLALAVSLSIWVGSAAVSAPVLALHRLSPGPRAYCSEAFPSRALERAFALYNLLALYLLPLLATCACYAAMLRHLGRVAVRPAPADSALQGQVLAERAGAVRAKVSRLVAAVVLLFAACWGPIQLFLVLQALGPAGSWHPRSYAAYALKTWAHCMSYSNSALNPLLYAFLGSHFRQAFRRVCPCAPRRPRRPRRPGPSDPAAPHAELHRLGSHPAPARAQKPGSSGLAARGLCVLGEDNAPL

B1: des(1)-Ac-[D-Tyr2,Hyp3,Thr5,threo-Ser(3Phenyl)6,AzaGly7,Arg(Me)9,Trp10]MS10 (peptide)
peptide: Ac-[dY][Hyp]NT[Phe(3R-OH)][azaGly]L[Arg(Me)]W-NH2
SMILES: CNC(=N)NCCC[C@H](NC(=O)[C@H](CC(C)C)NC(=O)NNC(=O)[C@@H](NC(=O)[C@@H](NC(=O)[C@H](CC(N)=O)NC(=O)[C@@H]1C[C@@H](O)CN1C(=O)[C@@H](Cc1ccc(O)cc1)NC(C)=O)[C@@H](C)O)[C@H](O)c1ccccc1)C(=O)N[C@@H](Cc1c[nH]c2ccccc12)C(N)=O
As to B1, the intracellular Ca ion level-increasing activity [specific activity to Metastin (1-54)] (relative to Metastin (1-54)) came to 1.
